Tested on: GST-NR2F6 fusion protein, wild-type, full-length (purified recombinant)
Sequence (chain, as listed by the source): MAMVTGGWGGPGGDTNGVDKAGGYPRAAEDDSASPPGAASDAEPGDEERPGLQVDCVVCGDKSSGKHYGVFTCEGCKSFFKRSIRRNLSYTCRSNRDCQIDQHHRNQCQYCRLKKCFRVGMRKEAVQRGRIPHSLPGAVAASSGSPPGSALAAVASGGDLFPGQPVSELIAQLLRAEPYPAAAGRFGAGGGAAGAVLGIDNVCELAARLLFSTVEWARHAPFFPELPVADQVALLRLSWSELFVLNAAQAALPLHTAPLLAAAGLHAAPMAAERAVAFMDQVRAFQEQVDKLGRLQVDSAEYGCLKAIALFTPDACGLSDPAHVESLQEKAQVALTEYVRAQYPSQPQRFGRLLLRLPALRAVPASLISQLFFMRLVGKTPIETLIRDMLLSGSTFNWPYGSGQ

B1: recombinant PKCzeta (enzyme, UniProt Q05513 1-592, looked up, species assumed)
Protein kinase C zeta type: MPSRTGPKMEGSGGRVRLKAHYGGDIFITSVDAATTFEELCEEVRDMCRLHQQHPLTLKWVDSEGDPCTVSSQMELEEAFRLARQCRDEGLIIHVFPSTPEQPGLPCPGEDKSIYRRGARRWRKLYRANGHLFQAKRFNRRAYCGQCSERIWGLARQGYRCINCKLLVHKRCHGLVPLTCRKHMDSVMPSQEPPVDDKNEDADLPSEETDGIAYISSSRKHDSIKDDSEDLKPVIDGMDGIKISQGLGLQDFDLIRVIGRGSYAKVLLVRLKKNDQIYAMKVVKKELVHDDEDIDWVQTEKHVFEQASSNPFLVGLHSCFQTTSRLFLVIEYVNGGDLMFHMQRQRKLPEEHARFYAAEICIALNFLHERGIIYRDLKLDNVLLDADGHIKLTDYGMCKEGLGPGDTTSTFCGTPNYIAPEILRGEEYGFSVDWWALGVLMFEMMAGRSPFDIITDNPDMNTEDYLFQVILEKPIRIPRFLSVKASHVLKGFLNKDPKERLGCRPQTGFSDIKSHAFFRSIDWDLLEKKQALPPFQPQITDDYGLDNFDTQFTSEPVQLTPDDEDAIKRIDQSEFEGFEYINPLLLSTEESV
in vitro protein kinase assay (32P incorporation into GST-NR2F6): (but not PKCzeta or PKA) were able to phosphorylate recombinant NR2F6 in vitro

Source: US20110239311
